Here are results for one substance from paper PMC12517307.

This assay deals with p53 (UniProt P04637).
Sequence of p53 (P04637 whole entry): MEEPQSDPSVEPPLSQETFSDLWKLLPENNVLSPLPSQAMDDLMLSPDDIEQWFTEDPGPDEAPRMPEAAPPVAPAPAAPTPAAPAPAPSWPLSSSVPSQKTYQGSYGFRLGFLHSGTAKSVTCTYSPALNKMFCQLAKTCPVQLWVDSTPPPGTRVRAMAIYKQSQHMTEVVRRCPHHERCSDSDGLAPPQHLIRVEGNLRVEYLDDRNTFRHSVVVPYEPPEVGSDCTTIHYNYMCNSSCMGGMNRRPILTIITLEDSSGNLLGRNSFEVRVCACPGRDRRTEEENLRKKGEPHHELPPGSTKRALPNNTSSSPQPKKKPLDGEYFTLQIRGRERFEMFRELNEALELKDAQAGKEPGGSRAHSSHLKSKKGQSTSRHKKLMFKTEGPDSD

As to p300 acetyl transferase, Q09472 1-2414, the p53 acetylation (IP with anti-p53, blot with anti-acetyl-lysine) in 3T3-L1 adipocytes overexpressing p53 and p300: reduction by NDN against control adipocytes; reversed by further addition of p300 worked out at 51%.
